Test results from US20240207418A1, “LINKERS, DRUG LINKERS AND CONJUGATES THEREOF AND METHODS OF USING THE SAME” (ProfoundBio US Co., priority 2021, published 2024).

Experiments:
human FOLR1 protein = biological target: T1, human FOLR1 protein (Homo sapiens, UniProt P15328); test: ELISA binding to human FOLR1 protein
T1 construct: His tag; purchased ACRO FO1-H52H1
Procedure: (§1) The ability of the antibodies to bind to human FOLR1 protein or to cross binding to cynomolgus FOLR1 protein was tested by standard ELISA. Briefly, the human FOLR1 (ACRO-FO1-H52H1) or cynomolgus FOLR1 protein (ACRO, F01-C52H8) with a His tag was diluted to 5 μg/ml with a carbonic acid coating solution at pH 9.6 and 100 μL antigen was coated in each well of 96-well microtiter plate at 4° C. overnight. The liquid in the wells was discarded and the wells were washed three times with PBST. The wells were then blocked with 4% skim milk powder-PBS (Sigma, D5652-1 L), using 300 μL/well and the plates incubated in 37° C. for 1 hour. The liquid in the wells was discarded, and the well were washed three times with PBS. Samples were added using 100 μL/well; PBS was added in the control group. The plates were incubated at 37° C. for 1 hour. The liquid in the wells was discarded and the wells were washed three times with PBST. HRP-goat anti-human IgG (Sigma, 118885-2ML) was added (with 1:5000 dilution, 100 μL/well) and the plates were incubated in 37° C. for 1 hour. Then the liquid in the wells was discarded, and the wells were washed five times with PBST. A TMB solution was added using 100 μL/well. 2M H2SO4 was added to each well using 50 μL to terminate the reaction after […]. The A450 values were read using a microplate reader.

cynomolgus FOLR1 protein = test: ELISA cross binding to cynomolgus FOLR1 protein
Procedure: as §1

T1 sequence (P15328 25-234): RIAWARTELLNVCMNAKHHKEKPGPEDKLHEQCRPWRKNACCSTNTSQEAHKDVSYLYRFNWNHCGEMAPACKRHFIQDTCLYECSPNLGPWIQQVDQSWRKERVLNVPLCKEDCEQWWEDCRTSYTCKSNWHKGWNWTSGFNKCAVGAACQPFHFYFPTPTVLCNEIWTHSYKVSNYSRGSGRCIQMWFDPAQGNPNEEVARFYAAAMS

B1: F40: anti-FOLR1 antibody clone: "Clone F40 has a different HCDRs and LCDRs, and with different HFR and LFR" (antibody, V domains shown)
VH: EVQLLESGGGVVQPGRSLRLSCAASGFTFSSYAMHWVRQAPGKGLEWVAVISYDGSNKYYADSVKGRFIISRDNSKNTVYLQMNSLRAEDTAVYYCARPTYVFTYTGSSFDYWGQGTQVTVSS
VL: DIQVTQSPSSLSASLGDTVSITCRASRGLTDSVAWYQQKPGQAPKLLIYAASTLQSGVPSRFGGSGSGSYFTLTITSLQPEDVATYYCQNYKSAPWTFGQGTKVEIK
B1 was tested, and the “OD450, Target: Human FOLR1 Protein His Tag, Diluted 1x” value (human FOLR1 protein; supernatant diluted 1x) was 0.811 OD450, the “OD450, Target: Human FOLR1 Protein His Tag, Diluted 5x” value (human FOLR1 protein; supernatant diluted 5x) was 0.382 OD450 and the “OD450, Target: Human FOLR1 Protein His Tag, Diluted 25x” value (human FOLR1 protein; supernatant diluted 25x) was 0.163 OD450. For the same molecule, the “Target binding, coating with Human FOLR1 Protein” value (human FOLR1 protein; transfection supernatant, ELISA) was 2.3860 OD450, the “OD450, Target: Cynomolgus/Rhesus macaque FOLR1, Protein, His Tag, Diluted 1x” value (cynomolgus FOLR1 protein; supernatant diluted 1x) was 1.354 OD450 and the “OD450, Target: Cynomolgus/Rhesus macaque FOLR1, Protein, His Tag, Diluted 5x” value (cynomolgus FOLR1 protein; supernatant diluted 5x) was 1.111 OD450. The “OD450, Target: Cynomolgus/Rhesus macaque FOLR1, Protein, His Tag, Diluted 25x” value (cynomolgus FOLR1 protein; supernatant diluted 25x) was 0.924 OD450.
